Data published in patent US20210155683A1.

Columns and labels:
human β-NGF (human) [1] = biological target: human β-NGF (human) (UniProt P01138); test: ELISA, plate coated with 0.5 µg/mL human β-NGF; antibody 1 µg/mL diluted 1:27; duplicate well 2
human β-NGF (human) [2] = biological target: human β-NGF (human) (UniProt P01138); test: ELISA, plate coated with 0.5 µg/mL human β-NGF; antibody 1 µg/mL diluted 1:81; duplicate well 1
human β-NGF (human) [3] = biological target: human β-NGF (human) (UniProt P01138); test: ELISA, plate coated with 0.5 µg/mL human β-NGF; antibody 1 µg/mL diluted 1:3; duplicate well 2
human β-NGF (human) [4] = biological target: human β-NGF (human) (UniProt P01138); test: ELISA, plate coated with 0.5 µg/mL human β-NGF; antibody 1 µg/mL diluted 1:729; duplicate well 1
human β-NGF (human) [5] = biological target: human β-NGF (human) (UniProt P01138); test: ELISA, plate coated with 0.5 µg/mL human β-NGF; antibody 1 µg/mL diluted 1:9; duplicate well 2
human β-NGF (human) [6] = biological target: human β-NGF (human) (UniProt P01138); test: ELISA, plate coated with 0.5 µg/mL human β-NGF; antibody at 1 µg/mL; duplicate well 2
human β-NGF (human) [7] = biological target: human β-NGF (human) (UniProt P01138); test: ELISA, plate coated with 0.5 µg/mL human β-NGF; antibody at 1 µg/mL; duplicate well 1
human β-NGF (human) [8] = biological target: human β-NGF (human) (UniProt P01138); test: ELISA, plate coated with human β-NGF, anti-human IgG-HRP detection, 4-parameter fit
[9] = biological target: NGF (as used in the TF-1 cell proliferation assays); test: cell-based or functional assay
human β-NGF (human) [10] = biological target: human β-NGF (human) (UniProt P01138); test: ELISA, plate coated with 0.5 µg/mL human β-NGF; antibody 1 µg/mL diluted 1:243; duplicate well 1
human β-NGF (human) [11] = biological target: human β-NGF (human) (UniProt P01138); test: ELISA, plate coated with 0.5 µg/mL human β-NGF; antibody 1 µg/mL diluted 1:9; duplicate well 1
human β-NGF (human) [12] = biological target: human β-NGF (human) (UniProt P01138); test: ELISA, plate coated with 0.5 µg/mL human β-NGF; antibody 1 µg/mL diluted 1:243; duplicate well 2
human β-NGF (human) [13] = biological target: human β-NGF (human) (UniProt P01138); test: ELISA, plate coated with 0.5 µg/mL human β-NGF; antibody 1 µg/mL diluted 1:3; duplicate well 1
human β-NGF (human) [14] = biological target: human β-NGF (human) (UniProt P01138); test: ELISA, plate coated with 0.5 µg/mL human β-NGF; antibody 1 µg/mL diluted 1:81; duplicate well 2
human β-NGF (human) [15] = biological target: human β-NGF (human) (UniProt P01138); test: ELISA, plate coated with 0.5 µg/mL human β-NGF; antibody 1 µg/mL diluted 1:27; duplicate well 1
human β-NGF (human) [16] = biological target: human β-NGF (human) (UniProt P01138); test: ELISA, plate coated with 0.5 µg/mL human β-NGF; antibody 1 µg/mL diluted 1:729; duplicate well 2

Sequence of human β-NGF (human) (P01138 122-241 limits assumed): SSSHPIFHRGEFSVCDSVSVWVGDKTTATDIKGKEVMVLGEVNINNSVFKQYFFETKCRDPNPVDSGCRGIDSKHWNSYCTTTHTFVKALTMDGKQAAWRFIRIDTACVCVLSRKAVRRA

OD (450 nm) (human β-NGF (human) [1]): 1.97 OD (450 nm)
OD (450 nm) (human β-NGF (human) [2]): 1.18 OD (450 nm)
OD (450 nm) (human β-NGF (human) [3]): 2.55 OD (450 nm)
OD (450 nm) (human β-NGF (human) [4]): 0.227 OD (450 nm)
OD (450 nm) (human β-NGF (human) [5]): 2.27 OD (450 nm)
OD (450 nm) (human β-NGF (human) [6]): 2.71 OD (450 nm)
OD (450 nm) (human β-NGF (human) [7]): 2.77 OD (450 nm)
EC50 (human β-NGF (human) [8]): 0.103 nM
neutralizing EC50 to NGF (inhibition of NGF-induced TF-1 cell proliferation, CCK-8) [9]: 0.21 nM
OD (450 nm) (human β-NGF (human) [10]): 0.56 OD (450 nm)
OD (450 nm) (human β-NGF (human) [11]): 2.48 OD (450 nm)
OD (450 nm) (human β-NGF (human) [12]): 0.609 OD (450 nm)
OD (450 nm) (human β-NGF (human) [13]): 2.66 OD (450 nm)
OD (450 nm) (human β-NGF (human) [14]): 1.27 OD (450 nm)
OD (450 nm) (human β-NGF (human) [15]): 2.17 OD (450 nm)
OD (450 nm) (human β-NGF (human) [16]): 0.245 OD (450 nm)
Substance: Pfizer antibody Tanezumab
